Measured values: US20060234945A1, “Ophthalmic therapeutic composition” (Nihon Tenganyaku Kenkyusho Co., LTD., priority 2002, published 2006)

Test system: rabbit corneal wound model
Assay: Corneal wound healing promotion action 1 (in vivo), approx. 6 mm corneal epithelial abrasion
Parameters: species or system Japanese white rabbit
Settings: 5 μM eye drop
Method: (2) Corneal Wound Healing Promotion Action 1 (In Vivo)
Using a male Japanese white rabbit, a wound of approximately 6 mm in diameter was produced in the cornea by inducing corneal epithelial abrasion in accordance with the method of Cintron et al. (Ophthalmic Res., 11, pp. 90-96 (1979)). The wound area was measured using the fluorescein-stained area as an index. The effects of the test compound on corneal wound healing were examined.
The eye drops containing the respective concentrations of the test compound were instilled (30 μl at a time) at 0, 3, 6, 9, 12, 18, 24, 27, 30, 33, 36, 42, and 48 hours after inducing corneal epithelial abrasion. In measuring the wound area, fluorescein staining was carried out and a photograph of the cornea was measured. The fluorescein-stained area of the photographed cornea was computed using an image analysis processing system.
In Tables 1 and 2, the respective values indicate the mean value±standard deviation (n=6). Statistical analysis was carried out using Dunnett's multiple comparison with respect to PBS with the area of the corneal wound portion immediately after (0 hours after) corneal epithelial abrasion being set to 100% (*p<0.05, ** p<0.01; vs. control).

B1: EGF: Epidermal Growth Factor, polypeptide with a molecular weight of 6000, mitosis-promoting growth factor for corneal epithelium (protein, UniProt P01133 23-1207, looked up)
Pro-epidermal growth factor: PQHWSCPEGTLAGNGNSTCVGPAPFLIFSHGNSIFRIDTEGTNYEQLVVDAGVSVIMDFHYNEKRIYWVDLERQLLQRVFLNGSRQERVCNIEKNVSGMAINWINEEVIWSNQQEGIITVTDMKGNNSHILLSALKYPANVAVDPVERFIFWSSEVAGSLYRADLDGVGVKALLETSEKITAVSLDVLDKRLFWIQYNREGSNSLICSCDYDGGSVHISKHPTQHNLFAMSLFGDRIFYSTWKMKTIWIANKHTGKDMVRINLHSSFVPLGELKVVHPLAQPKAEDDTWEPEQKLCKLRKGNCSSTVCGQDLQSHLCMCAEGYALSRDRKYCEDVNECAFWNHGCTLGCKNTPGSYYCTCPVGFVLLPDGKRCHQLVSCPRNVSECSHDCVLTSEGPLCFCPEGSVLERDGKTCSGCSSPDNGGCSQLCVPLSPVSWECDCFPGYDLQLDEKSCAASGPQPFLLFANSQDIRHMHFDGTDYGTLLSQQMGMVYALDHDPVENKIYFAHTALKWIERANMDGSQRERLIEEGVDVPEGLAVDWIGRRFYWTDRGKSLIGRSDLNGKRSKIITKENISQPRGIAVHPMAKRLFWTDTGINPRIESSSLQGLGRLVIASSDLIWPSGITIDFLTDKLYWCDAKQSVIEMANLDGSKRRRLTQNDVGHPFAVAVFEDYVWFSDWAMPSVMRVNKRTGKDRVRLQGSMLKPSSLVVVHPLAKPGADPCLYQNGGCEHICKKRLGTAWCSCREGFMKASDGKTCLALDGHQLLAGGEVDLKNQVTPLDILSKTRVSEDNITESQHMLVAEIMVSDQDDCAPVGCSMYARCISEGEDATCQCLKGFAGDGKLCSDIDECEMGVPVCPPASSKCINTEGGYVCRCSEGYQGDGIHCLDIDECQLGEHSCGENASCTNTEGGYTCMCAGRLSEPGLICPDSTPPPHLREDDHHYSVRNSDSECPLSHDGYCLHDGVCMYIEALDKYACNCVVGYIGERCQYRDLKWWELRHAGHGQQQKVIVVAVCVVVLVMLLLLSLWGAHYYRTQKLLSKNPKNPYEESSRDVRSRRPADTEDGMSSCPQPWFVVIKEHQDLKNGGQPVAGEDGQAADGSMQPTSWRQEPQLCGMGTEQGCWIPVSSDKGSCPQVMERSFHMPSYGTQTLEGGVEKPHSLLSANPLWQQRALDPPHQMELTQ
modifications: Pro-epidermal growth factor
notes: Epidermal Growth Factor, polypeptide with a molecular weight of 6000, mitosis-promoting growth factor for corneal epithelium
- Healing ratio (%) (0 hr (baseline)): 0%
- Healing ratio (%) (6 hr): 14.49 ± 3.42%
- Healing ratio (%) (12 hr): 31.63 ± 1.29%
- Healing ratio (%) (24 hr): 70.78 ± 6.91%
- Healing ratio (%) (36 hr): 96.41 ± 3.97%
- Healing ratio (%) (48 hr): 99.58 ± 1.03%
